Here are results for 41 sequences from the nanobody polyreactivity screen of Harvey et al. (2022).

The data set is described as follows: yeast display, Sf9 membrane polyspecificity reagent, FACS + sequencing; frameworks hold sequencing errors. The essentials: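 Nanobodies from a synthetic yeast display library (Saccharomyces cerevisiae BJ5465), induced 36–48 hours with galactose, were stained 1 hour at 4 °C with 10% biotinylated, detergent-solubilized Sf9 membrane reagent, enriched on streptavidin microbeads, then FACS-sorted. Anti-HA (expression) and streptavidin (reagent binding) fluorescence set low and high (top ~1%) gates. Polyreactivity labels come from the gate of origin. Genes were colony-PCR amplified, MiSeq 2 × 250 sequenced and filtered by CDR length.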
For “QVQLVESGGGLVQAGGSLRLSCAASGFIFVHNAMGWYRPAPGKERELVAAIRSRGGSTYYADSVKGRFTISRDNAKNTVYLQMNSLKPEDTAVDDCAADGAVVSSSRKFGYWGQGTQVTVSS”, the “polyreactivity (PSR sort gate)” value is given as “low polyreactivity”.
Consider “QVQLVESGGGLVQAGGSLRLSCAASGFIFVHNAMGWYRQAPGKERELVAAITSRGRTYYADSVKGRFTISRDNAKNTVYLQMNSLKPEDTAVYYCNAYWRGEYRYDSWGQGTQVTVSS”, for which the “polyreactivity (PSR sort gate)” value was “high polyreactivity”.
For “QVQLVESGGGLVQAGGSLRLSCAASGFIFVKNAMGWYRQAPGKERELVAVISTRGGRTYYADSVKGRFTISRDNAKNTVYLQMNSLKPEDTAVYYCAALYWYSRSSWDYDYWGQGTQVTVSS”, the “polyreactivity (PSR sort gate)” value was “high polyreactivity”.
As for “QVQLVESGGGLVQAGGSLRLSCAASGFIFVKYAMGWYRQAPGKERELVAAITNGGSTYYADSVKGRFTISRDNAKNTVYLQMNSLKPEDTAVYYCAAQYHDWWRRLLYRSFLPFDYWGQGTQVTVSS”, the “polyreactivity (PSR sort gate)” value was “low polyreactivity”.
Consider “QVQLVESGGGLVQAGGSLRLSCAASGFIFVLNVMGWYRQAPGKEMELVAAITWSGTSTYYADSVKGRFTISRDNAKNTVYLQMNSLKPEDTAVYYCNADWWSDGYDYWGQGSQVTVSS”, for which the “polyreactivity (PSR sort gate)” value was “low polyreactivity”.
The same measure for “QVQLVESGGGLVQAGGSLRLSCAASGFIFVLYAKGWYRQAPGQERELVAAISRTGGSTYYADSVKGRFTISRDNAKNTVYLQMNSLKPEDTAVYYCAVSRSKTYDYWGQGTQVTVSS”: “high polyreactivity”.
For the sequence “QVQLVESGGGLVQAGGSLRLSCAASGFIFVNYMGWYRQAPGKERELVAAISRGGSTNYADSVKGRFTISRDTAKNTVYLQMNSLKPEDTAVYYCAAETWYSGYTYDSCGQGTQVTVSS”, the “polyreactivity (PSR sort gate)” value is listed as “low polyreactivity”.
For “QVQLVESGGGLVQAGGSLRLSCAASGFIFVPNAMGWYRQAPGNERELVAAIRSSGGTTYYADSVKGRFTISRDNAKNTVYLQMNSLKPEDTAVYYCAAKYTSRLNSGYSNYYWGQGTQVTVSW”, the “polyreactivity (PSR sort gate)” value is “high polyreactivity”.
The value for “QVQLVESGGGLVQAGGSLRLSCAASGFIFVPYAMGWYRQAPGKERELVAAISSSGGSTNYTDSVKGRFTISRDNAKNTVYLQMISLKPEDTAVYYCAAATWYVNPTHFNRYSEFYYWGQGTQVTVSS” was “low polyreactivity”; that for “QVQLVESGGGLVQAGGSLRLSCAASGFIFVPYAMGWYRQAPGQERELVAAISSSGGSTNYTDSVKGRFTISRDNAKNSVYLQMNRLKPEDTAVYYCAAATWYVNPTHFNRYSEFYYWGQGTQVTVSS” was “low polyreactivity”; that for “QVQLVESGGGLVQAGGSLRLSCAASGFIFVQYAMGWYRQAPGKERELVAAITKSGGRTYYADSVKGRFTISRDNAKNTVYLQMNSLKPEDTAVYYCAALGNGNFPTVDYWGQGTQVTVSS” was “high polyreactivity”.
Regarding “QVQLVESGGGLVQAGGSLRLSCAASGFIFVRYAMGWYRQAPGKERELVAAISSGGSTKYADSVKGRFTISRDNAKNTVYLQMNSLKPEDTAVYYCAADATPGRGVDYWGQGTQVTVSS”, the “polyreactivity (PSR sort gate)” value is “high polyreactivity”.
As for “QVQLVESGGGLVQAGGSLRLSCAASGFIFVRYAMGWYRQAPGKERELVAAISTSGSSTYYADSVKGRFTISRDNAKNTVFLQMNSLKPEDTAVYYCAAKDRGQSYGYWGQGTQVTVSS”, the “polyreactivity (PSR sort gate)” value is given as “high polyreactivity”.
Take “QVQLVESGGGLVQAGGSLRLSCAASGFIFVSNAMGWYRQAPGKERELVATITNGDRTYYADSVKGRFTISRDNAKNTVYLQMNSLKPEDTGVYYCNADDQVGSIWKWYGKYEYRGQGTQVTVSS”: the “polyreactivity (PSR sort gate)” value is “low polyreactivity”.
With “QVQLVESGGGLVQAGGSLRLSCAASGFIFVVYAMGWYRQAPGKERELVATISSGGGTYYADSVKGRFTISRDNAKNSVYFQMNSLKPEDTAVYYCAARRSRLYHFGGNNYWGQGTQVTVSS”, the “polyreactivity (PSR sort gate)” value is “high polyreactivity”.
The value for “QVQLVESGGGLVQAGGSLRLSCAASGFIFVYNAMGWYRQATGKERELVAAIDYGGGSTTYADSVKVRFTISRDNAKNTVYLQMNSLKPEDTAVYYCAAYYRYLDDIYEYEYWGQGTQVTVSS” was “low polyreactivity”; that for “QVQLVESGGGLVQAGGSLRLSCAASGFIFVYYAMVWYRQAPGKERELVAAITLRGGSTNYADSVKGRFTISRDNAKNTVYLQMNSRKPEDTAVYYCAAYSVWGGSYLALDYWGQGTQVTVSS” was “low polyreactivity”.
For the sequence “QVQLVESGGGLVQAGGSLRLSCAASGFIFVYYTMGWYRQAPGNERELVAAISVSGGRTYYADSVKGRFTISRDNAKNTVYLQMNSLKPEDTAVYYCNARNGYGIGYWGQGTQVTVSS”, the “polyreactivity (PSR sort gate)” value is “high polyreactivity”.
With “QVQLVESGGGLVQAGGSLRLSCAASGFIFVYYVMGWYRTAPGKERELVAAITQSGGSTYYADSVKGRFTISRDNAKNTVYLQMNSLKPEDTAVYYCAAYRRTTGGGYDYWGQGTQVTVSS”, the “polyreactivity (PSR sort gate)” value is recorded as “high polyreactivity”.
Regarding “QVQLVESGGGLVQAGGSLRLSCAASGFIFWAYDMGWYRQAPGKERELVAGIDWSGGSTYYADSVKGRFTISRDNAKNTVYLQMNSLKPEDTAVYYCAADRLLYGGGREYWGQGTQVTVSS”, the “polyreactivity (PSR sort gate)” value was “high polyreactivity”.
Consider “QVQLVESGGGLVQAGGSLRLSCAASGFIFWDYALGWYRQAPGKEREFVANISRSVGSTYYADSVKGRFTISRDNAKNTVYLQMYTLKPEDTAVYYCAAVTWGEGFDYWGQGTQVTVSS”, for which the “polyreactivity (PSR sort gate)” value is reported as “low polyreactivity”.
On to “QVQLVESGGGLVQAGGSLRLSCAASGFIFWGNAMGWYRQAPGKERELVAAISSSSGSTYYADSVKGRFTISRDNAKNTVYLQMNSLKPVDSAVYDCAVDTPRSYRAQGAYNYWGQGTQVTVSS”, for which the “polyreactivity (PSR sort gate)” value is recorded as “low polyreactivity”.
Turning to “QVQLVESGGGLVQAGGSLRLSCAASGFIFWKYAMGWYRPAPGKERELVAAISRSGGRTYYADSVKGRFTISRDNAKNTVYLQMNSLKPEDTAVYYCAKDSATYPYGTVGEYNYWGQGTQVTVSS”, the “polyreactivity (PSR sort gate)” value is reported as “high polyreactivity”.
The same measure for “QVQLVESGGGLVQAGGSLRLSCAASGFIFWLYAMGWSRQAPGKERELVASINWSGGDTYYADSVKGRFTISRDKAKNTVYLQMNSLKPEDTAVYYCAARYWSIYDYWGQGTQVTVSS”: “low polyreactivity”.
As to “QVQLVESGGGLVQAGGSLRLSCAASGFIFWLYAMGWYRQAPGKERELVAAISRSGGRTYYADSVKGRFTISRDNAKITVYLQMNSLKPEDTAVYYFAKVDNYKSYPYDYWGQGTQVTVSS”, the “polyreactivity (PSR sort gate)” value is given as “high polyreactivity”.
Regarding “QVQLVESGGGLVQAGGSLRLSCAASGFIFWSNAMGWYRQAPGKERELVAAISWSGGSTYYADSVKGRFTISRDNAKKTVYLQMNSLKPEDTAVYYCNTLNVQRDEHDYWGQGTQVTVSS”, the “polyreactivity (PSR sort gate)” value is given as “high polyreactivity”.
“QVQLVESGGGLVQAGGSLRLSCAASGFIFWSNAMGWYRQAPGKERELVAAISWSGGSTYYADSVKGRFTISRDNAKNTVYLQMNSLKPEDTAVYYCNTLNVQRDEHDYWGQGTQVTVSS”: the “polyreactivity (PSR sort gate)” value was “high polyreactivity”.
With “QVQLVESGGGLVQAGGSLRLSCAASGFIFWSNARGWYRQAPGQDRELVAAINSSGGRTDYADSVKGRFTNSRDNAKNTDYLHMNSLKPEDTAVYYCAARLHSPPYRYDYWGQGTQVTVSS”, the “polyreactivity (PSR sort gate)” value is on record as “high polyreactivity”.
As to “QVQLVESGGGLVQAGGSLRLSCAASGFIFWSYAMGWYRQAPGKERELVAAINTSTGRTYYADSVKGRFTISRDNAKNTVYLQMNSLKPEDTAVYYCAADLPWGPLFDYWGQGTQVTVSS”, the “polyreactivity (PSR sort gate)” value is “low polyreactivity”.
For the sequence “QVQLVESGGGLVQAGGSLRLSCAASGFIFWTYAMGWYRQAPGKERELVAAISSGGTITKYADSVKGRFTISRDNATNTVYLQMNSLKPEDTAVYYCNARENAVSLRDYWGQGTQVTVSS”, the “polyreactivity (PSR sort gate)” value is reported as “high polyreactivity”.
For the sequence “QVQLVESGGGLVQAGGSLRLSCAASGFIFWTYAMGWYRQAPGKERELVARISWSGGSTYYADSVKGRFTISRDNAKNTVYLQMNSLKPEDTAVYYCARLATLYESIEYDYWGHGTQVTVSS”, the “polyreactivity (PSR sort gate)” value is “low polyreactivity”.
On to “QVQLVESGGGLVQAGGSLRLSCAASGFIFWVYAMGWYRQAPGKESELVAAITSGGRTYYADSEKGRFTISRDNAKNTVYLQMNSLKPEDTAVYYCAARWHYGYYSYYYWGQGTQVTVSS”, for which the “polyreactivity (PSR sort gate)” value is “high polyreactivity”.
The same measure for “QVQLVESGGGLVQAGGSLRLSCAASGFIFWYYAMGWYRQAPGKERELVATITTGGGTNYADSVKGRFTISRDNAKNTVYLQMNSLKPEDTAVYYCNADFRWYAEDDYWGQGTQVTVSS”: “low polyreactivity”.
“QVQLVESGGGLVQAGGSLRLSCAASGFIFYAYAMGWYRPAPGKERELVAAISQRGGITYYADSVKGRFTISRDNAKNTVYLQMNRLKPEDTAVYYCNAGQRYYTSRYYYWGQGTQVTVSS”: the “polyreactivity (PSR sort gate)” value was “high polyreactivity”.
The same measure for “QVQLVESGGGLVQAGGSLRLSCAASGFIFYDNAMGWYRQAPGKERELVAAITSGGSTYYADSVKGRFTISRDNAKNTVYLQMNSLKPEDTAVYYCATRPWGSWYYYWGQGTQVTVSS”: “high polyreactivity”.
Take “QVQLVESGGGLVQAGGSLRLSCAASGFIFYDYAMGWYRQAPGKERELVASISWSTGSTYYADSVKGRFTISRDNAKNTVYLQMNSLKPEDTADYYCAADGYPLQLYNYWGQGTQVTVSS”: the “polyreactivity (PSR sort gate)” value is on record as “low polyreactivity”.
“QVQLVESGGGLVQAGGSLRLSCAASGFIFYDYDMGWYRQSPGKERELVAAISSGGSTNYADSVKGRFTISRDNAKNTVYLQMNSLIPEDTAVYYCATDVGVERRQVDRYIYDYWGQGTQVTVSS”: the “polyreactivity (PSR sort gate)” value was “low polyreactivity”.
Turning to “QVQLVESGGGLVQAGGSLRLSCAASGFIFYGYAMGWYRQAPGKERELVAGISTGGSTNYADSVKGRFTISRDNAKNTVYLQMNSLKPEDTAVYYCAKRAYFYYGRYDYWGQGTQVTVSS”, the “polyreactivity (PSR sort gate)” value was “low polyreactivity”.
For the sequence “QVQLVESGGGLVQAGGSLRLSCAASGFIFYGYTMGWYRQAPGKERELLARISRRGGSTYYADSVKGRFTISRDNAKNTVYLQMNSLKPEDTAVYYCATDDARRGYGYGYWGQGPQVTVSS”, the “polyreactivity (PSR sort gate)” value is given as “low polyreactivity”.
Turning to “QVQLVESGGGLVQAGGSLRLSCAASGFIFYGYTMGWYRQAPGKERELVAAITFSGGRTYYADSVKGRFTISRDNAKNTVYLQMNSLKPEDTAVYYCNARVVNYFRPRTGAREYDYWGQGTQVTVSS”, the “polyreactivity (PSR sort gate)” value was “high polyreactivity”.
Take “QVQLVESGGGLVQAGGSLRLSCAASGFIFYHNAMGWYRQAPGKERELVAAISSTGGSTHYADSVKGRFTISRDNAKNTVYLQMNSLKPEDTAVYYCNADPRRRWYDYWGQGTQVTVSS”: the “polyreactivity (PSR sort gate)” value is reported as “high polyreactivity”.
